Test results as given in patent US20210101964A1 (UCB, published 2021).
Residue numbers refer to the chain shown, from its start. Names and notes keep the numbering of the source. Ends that are not written are not given here.

T1: biotinylated peptide corresponding to residues 117 to 126 of human alpha synuclein (PVDPDNEAYE) (human, also: biotinylated, position not given here)
T1 construct: Captured on streptavidin plates for the ELISA
T1 peptide: PVDPDNEAYE

B1: Antibody 5811gL8gH4 IgG4P (antibody, V domains shown)
VH: EVQLVESGGGLVKPGGSLRLSCAASGFTFNNAAMYWVRQAPGKGLEWVARIRTKPNNYATSYADSVKGRFTISRDDSKNTLYLQMNSLKTEDTAVYYCTADYSRGDRWGQGTMVTVSS
VL: DIQMTQSPSSLSASVGDRVTITCKASQNINKNLDWYQQKPGKAPKLLIYYANNLQTGVPSRFSGSGSGTDFTLTISSLQPEDFATYYCYQYKNGWTFGQGTKVEIKR
B2: Antibody 5811gL5gH4 IgG4P (antibody, V domains shown)
VH: B1 VH
VL: B1 VL with F71Y
notes: also called VR5811
B3: Antibody 5811gL14gH4 IgG4P (antibody, V domains shown)
VH: B1 VH
VL: B1 VL with G94A
B4: rat-mouse chimeric recombinant antibody 5811 mFab (Fab, V domains shown)
VH: EMQLVESGGGLVQPKESLKISCAASGFTFNNAAMYWVRQAPGKGLEWVARIRTKPNNYATSYADSVKGRFTISRDDSKSMVYLQMDNLKSEDTAMYYCTADYSRGDRWGQGVMVTVSS
VL: NIQMTQSPPVLSASVGDRVTLSCKASQNINKNLDWYQQKHGEAPKLLMYYANNLQTGIPSRFSGSGSGTDYTLTISSLQPEDVATYYCYQYKNGWTFGGGTKLELKR
B5: peptide AS104-113 (peptide)
peptide: Ac-EEGAPQEGIL-NH2
notes: Synthetic peptide of human alpha synuclein
B6: rat-mouse chimeric recombinant antibody 5811 mIgG1 (antibody, V domains shown)
VH: B4 VH
VL: B4 VL
B7: Chimeric rat-human 5811 antibody (antibody, V domains shown)
VH: B4 VH
VL: NIQMTQSPPVLSASVGDRVTLSCKASQNINKNLDWYQQKHGEAPKLLMYYANNLQTGIPSRFSGSGSGTDYTLTISSLQPEDVATYYCYQYKNGWTFGGGTKLELK
notes: It was prepared like the humanized antibodies, with the human kappa constant region (Km3) and human gamma-4 with S241P (IgG4P); also called parental rat-human antibody

Experiments:
[1] = biological target: T2, recombinant human alpha synuclein fibrils (human, UniProt P37840 1-140); assay: cell-based or functional assay
[2] = biological target: T2, recombinant human alpha synuclein …; assay: kinetics on alpha synuclein fibrils; method not named in Example 4 (ka1/kd1 as in the Biacore bivalent analyte model)
[3] = biological target: T2, recombinant human alpha synuclein …; assay: cell-based or functional assay; remark: listed apart in the source
[4] = biological target: T2, recombinant human alpha synuclein …; assay: kinetics on human fibril; method not named (same values as Table 5)
[5] = biological target: B4; assay: competitive SPR (Biacore 3000): 50 nM 5811 mFab pre-incubated with 1 µM peptide, injected over immobilised human alpha synuclein monomer and fibrils
Description: Recombinant human alpha synuclein monomer and pre-formed alpha synuclein fibrils were immobilized on a CM5 chip using a Biacore 3000 instrument (GE Healthcare). Following activation of the carboxymethyl dextran surface by injection of 100 μl of a fresh 1:1 (v/v) mixture of 50 mM N-hydroxysuccimide and 200 mM 1-ethyl-3-(3-dimethylaminopropyl)-carbodiimide at a flow rate of 10 μl/min HBS-EP (GE Healthcare) as running buffer, coupling was achieved by injecting 100 μl of monomer and fibrils, at 5 μM in 10 mM acetate pH 5.0, over separate flow cells. A reference flow cell was activated in the same manner and then all flow cell surfaces were deactivated with a 50 μl pulse of 1 M ethanolamine.HCl pH 8.5.
Peptide solutions were prepared in running buffer at 100 μM and a peptide blank control prepared as a 1 in 100 dilution of DMSO in running buffer. […] Sensograms were recorded for each sample by injecting 30 μl of the mixture at 10 μl/min and recording a report point 5 seconds before the end of the injection. The chip was regenerated at the end of each cycle by two 10 μl injections of 40 mM HCl and one injection of 5 mM NaOH. Control cycles were alternated with peptide cycles.

[6] = biological target: T3, recombinant full-length human alpha synuclein monomer (human, UniProt P37840 1-140); assay: SPR (Biacore T200), antigen amine-coupled to CM5 chip, Fab as analyte, 1:1 model
Description: (§1) Interaction kinetics were determined by using surface plasmon resonance technology on a Biacore T200 instrument. Three different ligands including recombinant full-length human alpha synuclein monomer, purified recombinant human alpha synuclein fibrils, and purified recombinant mouse alpha synuclein fibrils, prepared as described herein, were each immobilized on three different flow cells of a CM5 chip surface using amine-coupling chemistry. The three ligands were prepared in 10 mM NaAc, pH 3.5, and immobilized onto separate flow cell surfaces to reach an immobilization level of about 30 response units (RU) for alpha synuclein monomer, about 40 RU for human alpha synuclein fibrils, and about 300 RU for mouse alpha synuclein fibrils respectively, at a flow rate of 10 μl/min. The buffer HBS-EP+(GE healthcare Bio-Sciences AB) was used as running buffer for both ligand immobilization and kinetics assay. […] The surface was regenerated by one injection of 50 mM HCl for 90 s at 10 μl/min, and another injection of 50 mM HCl for 60 s at 10 μl/min. The data were analyzed using the Biacore T200 evaluation software (version 3.0) using the bivalent analyte model with assumed no bulk contribution (RI=0) and global Rmax for mIgG1 format, and 1:1 model with flexible bulk contribution (local RI) and global Rmax.

[7] = biological target: T2, recombinant human alpha synuclein …; assay: as above
Description: as §1

[8] = biological target: T4, recombinant mouse alpha synuclein fibrils (mouse, UniProt O55042 1-140); assay: as above
Description: as §1

[9] = biological target: T1, biotinylated peptide corresponding to …; assay: streptavidin-capture ELISA on biotinylated peptide PVDPDNEAYE, HRP secondary antibody, TMB, OD 630 nm
Description: Purified rat-mouse chimeric antibodies were then subject to further screening by ELISA. […] Plates were blocked with 1% w/v PEG/PBS and then incubated with several dilutions of purified transient supernatant. Secondary HRP-conjugated goat anti-mouse IgG Fc antibody (Stratech Scientific Ltd/Jackson ImmunoResearch) was added to plates, followed by visualization of binding with TMB substrate (3,3′,5,5′-Tetramethylbenzidine, from EMD Millipore; 10 μl/well).

[10] = biological target: T5, human beta synuclein (rPeptide) (human, UniProt Q16143 1-134); assay: Western blot
T5 construct: also called rPeptide beta synuclein; human betα-synuclein
Description: The binding of antibodies raised against human alpha synuclein to human beta synuclein were tested by Western blot using rPeptide beta synuclein. […] The membrane was blocked in PBS with 3% BSA and 0.1% Tween20. […] The blot was washed extensively in PBS with 0.1% Tween20, PBS and water. Chemi-luminescence was measured after addition of ECL Western blot substrate (Pierce).
The blot was washed after 1-hour incubation at room temperature with 0.1% Tween in PBS.

[11] = biological target: T3, recombinant full-length human alpha …; assay: SPR (Biacore T200), antigen amine-coupled to CM5 chip, IgG as analyte, bivalent analyte model (KD1)
Description: as §1

[12] = biological target: T2, recombinant human alpha synuclein …; assay: as above
Description: as §1

[13] = biological target: T4, recombinant mouse alpha synuclein …; assay: as above
Description: as §1

T5 sequence (Q16143 whole entry): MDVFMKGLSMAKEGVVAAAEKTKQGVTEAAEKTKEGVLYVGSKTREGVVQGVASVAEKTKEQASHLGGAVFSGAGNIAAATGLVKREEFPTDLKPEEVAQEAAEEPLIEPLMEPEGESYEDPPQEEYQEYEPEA

Question: What does the source list for B1?
Answer: IC50, aggregation assay on mouse primary neurons (pSer129 alpha synuclein signal) [1]: < 5 nM; IC50, cell-based aggregation assay (HEK cells expressing alpha synuclein, % pSer129+ cells) [1]: ≤ 5 nM; Kd [2]: 0.0159 nM; koff [2]: 5.17e-05 s⁻¹; kon [2]: 3.26e+06 M⁻¹ s⁻¹

Question: Which “IC50, aggregation assay on mouse primary neurons (pSer129 alpha synuclein signal)” value [1] does the source give for B2 here?
Answer: < 5 nM

Question: What about the “IC50, cell-based aggregation assay (HEK cells expressing alpha synuclein, % pSer129+ cells)” value [1] of the same binder?
Answer: ≤ 5 nM

Question: And the “IC50 (nM), cell-based aggregation assays” value [3]?
Answer: < 5 nM

Question: What about the Kd [4] of the same binder?
Answer: 0.015 nM

Question: And the koff [4]?
Answer: 4.1e-05 s⁻¹

Question: And the kon [4]?
Answer: 2.74e+06 M⁻¹ s⁻¹

Question: And the Kd [2]?
Answer: 0.015 nM

Question: What about the koff [2] of the same binder?
Answer: 4.1e-05 s⁻¹

Question: And the kon [2]?
Answer: 2.74e+06 M⁻¹ s⁻¹

Question: What does the source list for B3?
Answer: IC50, aggregation assay on mouse primary neurons (pSer129 alpha synuclein signal) [1]: < 5 nM; IC50, cell-based aggregation assay (HEK cells expressing alpha synuclein, % pSer129+ cells) [1]: ≤ 5 nM; Kd [2]: 0.0185 nM; koff [2]: 2.04e-05 s⁻¹; kon [2]: 1.1e+06 M⁻¹ s⁻¹

Question: Does Ac-DPDNEAYEMP-NH2 [peptide AS119-128] bind [5]?
Answer: binds

Question: Which Kd [6] does the source give for B4 here?
Answer: 0.29 nM

Question: And the Kd [7]?
Answer: 0.6 nM

Question: What about the Kd [8] of the same binder?
Answer: 42.9 nM

Question: What about the “EC50 (read off the curve)” value [9] of the same binder?
Answer: ~0.4 µg/mL

Question: Does Ac-LEDMPVDPDN-NH2 [peptide AS113-122] bind [5]?
Answer: binds

Question: Does Ac-DMPVDPDNEA-NH2 [peptide AS115-124] bind [5]?
Answer: binds

Question: Does B5 bind [5]?
Answer: no binding (tested: 1 µM)

Question: Does Ac-QEGILEDMPV-NH2 [peptide AS109-118] bind [5]?
Answer: no binding (tested: 1 µM)

Question: Does Ac-GILEDMPVDP-NH2 [peptide AS111-120] bind [5]?
Answer: no binding (tested: 1 µM)

Question: Does Ac-DNEAYEMPSE-NH2 [peptide AS121-130] bind [5]?
Answer: no binding (tested: 1 µM)

Question: Does Ac-EAYEMPSEEG-NH2 [peptide AS123-132] bind [5]?
Answer: no binding (tested: 1 µM)

Question: Does Ac-YEMPSEEGYQ-NH2 [peptide AS125-134] bind [5]?
Answer: no binding (tested: 1 µM)

Question: Does Ac-MPSEEGYQDY-NH2 [peptide AS127-136] bind [5]?
Answer: no binding (tested: 1 µM)

Question: Does Ac-SEEGYQDYEP-NH2 [129-138] bind [5]?
Answer: no binding (tested: 1 µM)

Question: Does Ac-EGYQDYEPEA-OH (also called AS131-140) [131-140] bind [5]?
Answer: no binding (tested: 1 µM)

Question: What does the source list for B6?
Answer: binding result [10]: no binding (tested: 1 micro gram of synuclein per lane); Kd [11]: 0.53 nM; Kd [12]: 0.03 nM; Kd [13]: 119 nM

Question: Which Kd [2] does the source give for B7 here?
Answer: 0.0156 nM
